Key:
HeLa Kyoto [1] = assay: melting temperature (median over replicates), in situ; higher = more thermally stable
HeLa Kyoto [2] = assay: thermal stability score vs G1/S (z-score of summed log2 fold changes over temperatures); higher = more thermally stable than in G1/S
HeLa Kyoto [3] = assay: solubility in G1/S (NP-40 vs SDS abundance) (log2 ratio); higher = more soluble; conditions: cell cycle stage: G1/S
HeLa Kyoto [4] = assay: solubility change mitosis vs G1/S (difference of NP-40 vs SDS log2 ratios) (log2 ratio difference); higher = more soluble in mitosis
[5] = cell cycle stage: early G1 (4.5 h after nocodazole release)
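Wherever melting temperature (median over replicates), in situ is given: HeLa Kyoto cells synchronized by double thymidine or nocodazole block, proteins quantified by TMT10plex mass spectrometry, three independent biological replicates.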
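Wherever solubility change mitosis vs G1/S (difference of NP-40 vs SDS log2 ratios) is given: synchronized HeLa Kyoto cells (double thymidine block for G1/S, nocodazole release for mitosis), protein amounts in NP-40 versus SDS lysates quantified by mass spectrometry, three biological replicates.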
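Wherever solubility in G1/S (NP-40 vs SDS abundance) is given: HeLa Kyoto cells arrested at G1/S by double thymidine block, proteins quantified by TMT10plex mass spectrometry in mild NP-40 versus SDS extracts, three biological replicates.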
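Wherever thermal stability score vs G1/S (z-score of summed log2 fold changes over temperatures) is given: synchronized HeLa Kyoto cells, proteins quantified by TMT10plex mass spectrometry, three biological replicates, mitosis taken 0.5 h after nocodazole release, G1/S directly after double thymidine block.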

MAAHGGSAASSALKGLIQQFTTITGASESVGKHMLEACNNNLEMAVTMFLDGGGIAEEPSTSSASVSTVRPHTEEEVRAPIPQKQEILVEPEPLFGAPKRRRPARSIFDGFRDFQTETIRQEQELRNGGAIDKKLTTLADLFRPPIDLMHKGSFETAKECGQMQNKWLMINIQNVQDFACQCLNRDVWSNEAVKNIIREHFIFWQVYHDSEEGQRYIQFYKLGDFPYVSILDPRTGQKLVEWHQLDVSSFLDQVTGFLGEHGQLDGLSSSPPKKCARSESLIDASEDSQLEAAIRASLQETHFDSTQTKQDSRSDEESESELFSGSEEFISVCGSDEEEEVENLAKSRKSPHKDLGHRKEENRRPLTEPPVRTDPGTATNHQGLPAVDSEILEMPPEKADGVVEGIDVNGPKAQLMLRYPDGKREQITLPEQAKLLALVKHVQSKGYPNERFELLTNFPRRKLSHLDYDITLQEAGLCPQETVFVQERN [UBXN7]
melting temperature (HeLa Kyoto [1]; cell cycle stage: G1/S): 52.8 °C | melting temperature (HeLa Kyoto [1]; cell cycle stage: mitosis): 52.8 °C | thermal stability score (HeLa Kyoto [2]; [5]): -0.156 | thermal stability score (HeLa Kyoto [2]; cell cycle stage: mitosis): -0.248 | solubility in G1/S (log2) (HeLa Kyoto [3]): 0.148 | solubility change mitosis (log2) (HeLa Kyoto [4]): -0.138

MAAHRPGPLKQQNKAHKGGRHRGRGSAQRDGKGRLALKTLSKKVRKELSRVDQRHRASQLRKQKKEAVLAEKRQLGGKDGPPHQVLVVPLHSRISLPEAMQLLQDRDTGTVHLNELGNTQNFMLLCPRLKHRWFFTSARPGDLHVVLDMAKVADTILFLLDPLEGWDSTGDYCLSCLFAQGLPTYTLAVQGISGLPLKKQIDTRKKLSKAVEKRFPHDKLLLLDTQQEAGMLLRQLANQKQQHLAFRDRRAYLFAHAVDFVPSEENNLVGTLKISGYVRGQTLNVNRLLHIVGYGDFQMKQIDAPGDPFPLNPRGIKPQKDPDMAMEICATDAVDDMEEGLKVLMKADPGRQESLQAEVIPDPMEGEQTWPTEEELSEAKDFLKESSKVVKKVPKGTSSYQAEWILDGGSQSGGEGDEYEYDDMEHEDFMEEESQDESSEEEEEYETMTIGESVHDDLYDKKVDEEAEAKMLEKYKQERLEEMFPDEVDTPRDVAARIRFQKYRGLKSFRTSPWDPKENLPQDYARIFQFQNFTNTRKSIFKEVEEKEVEGAEVGWYVTLHVSEVPVSVVECFRQGTPLIAFSLLPHEQKMSVLNMVVRRDPGNTEPVKAKEELIFHCGFRRFRASPLFSQHTAADKHKLQRFLTADMALVATVYAPITFPPASVLLFKQKSNGMHSLIATGHLMSVDPDRMVIKRVVLSGHPFKIFTKMAVVRYMFFNREDVLWFKPVELRTKWGRRGHIKEPLGTHGHMKCSFDGKLKSQDTVLMNLYKRVFPKWTYDPYVPEPVPWLKSEISSTVPQGGME [TSR1]
melting temperature (HeLa Kyoto [1]; cell cycle stage: G1/S): 48.3 °C | melting temperature (HeLa Kyoto [1]; cell cycle stage: mitosis): 50.6 °C | thermal stability score (HeLa Kyoto [2]; [5]): 0.699 | thermal stability score (HeLa Kyoto [2]; cell cycle stage: mitosis): 5.63 | solubility in G1/S (log2) (HeLa Kyoto [3]): -0.634 | solubility change mitosis (log2) (HeLa Kyoto [4]): 0.0446

MAALAPLPPLPAQFKSIQHHLRTAQEHDKRDPVVAYYCRLYAMQTGMKIDSKTPECRKFLSKLMDQLEALKKQLGDNEAITQEIVGCAHLENYALKMFLYADNEDRAGRFHKNMIKSFYTASLLIDVITVFGELTDENVKHRKYARWKATYIHNCLKNGETPQAGPVGIEEDNDIEENEDAGAASLPTQPTQPSSSSTYDPSNMPSGNYTGIQIPPGAHAPANTPAEVPHSTGVASNTIQPTPQTIPAIDPALFNTISQGDVRLTPEDFARAQKYCKYAGSALQYEDVSTAVQNLQKALKLLTTGRE [VTA1]
melting temperature (HeLa Kyoto [1]; cell cycle stage: G1/S): 50.9 °C | melting temperature (HeLa Kyoto [1]; cell cycle stage: mitosis): 50.4 °C | thermal stability score (HeLa Kyoto [2]; [5]): -1.99 | thermal stability score (HeLa Kyoto [2]; cell cycle stage: mitosis): -2.34 | solubility in G1/S (log2) (HeLa Kyoto [3]): 0.0799 | solubility change mitosis (log2) (HeLa Kyoto [4]): 0.325

MAALEEEFTLSSVVLSAGPEGLLGVEQSDKTDQFLVTDSGRTVILYKVSDQKPLGSWSVKQGQIITCPAVCNFQTGEYVVVHDNKVLRIWNNEDVNLDKVFKATLSAEVYRILSVQGTEPLVLFKEGAVRGLEALLADPQQKIETVISDEEVIKWTKFFVVFRHPVLIFITEKHGNYFAYVQMFNSRILTKYTLLLGQDENSVIKSFTASVDRKFISLMSLSSDGCIYETLIPIRPADPEKNQSLVKSLLLKAVVSGNARNGVALTALDQDHVAVLGSPLAASKECLSVWNIKFQTLQTSKELPQGTSGQLWYYGEHLFMLHGKSLTVIPYKCEVSSLAGALGKLKHSQDPGTHVVSHFVNWETPQGCGLGFQNSEQSRRILRRRKIEVSLQPEVPPSKQLLSTIMKDSEKHIEVEVRKFLALKQTPDFHTVIGDTVTGLLERCKAEPSFYPRNCLMQLIQTHVLSYSLCPDLMEIALKKKDVQLLQLCLQQFPDIPESVTCACLKIFLSIGDDSLQETDVNMESVFDYSINSVHDEKMEEQTEILQNGFNPEEDKCNNCDQELNKKPQDETKESTSCPVVQKRAALLNAILHSAYSETFLLPHLKDIPAQHITLFLKYLYFLYLKCSENATMTLPGIHPPTLNQIMDWICLLLDANFTVVVMMPEAKRLLINLYKLVKSQISVYSELNKIEVSFRELQKLNQEKNNRGLYSIEVLELF [NOL11]
melting temperature (HeLa Kyoto [1]; cell cycle stage: G1/S): 55.1 °C | melting temperature (HeLa Kyoto [1]; cell cycle stage: mitosis): 52.9 °C | thermal stability score (HeLa Kyoto [2]; [5]): -2.5 | thermal stability score (HeLa Kyoto [2]; cell cycle stage: mitosis): -6.66 | solubility in G1/S (log2) (HeLa Kyoto [3]): -0.963 | solubility change mitosis (log2) (HeLa Kyoto [4]): 0.471

MAALGEPVRLERDICRAIELLEKLQRSGEVPPQKLQALQRVLQSEFCNAVREVYEHVYETVDISSSPEVRANATAKATVAAFAASEGHSHPRVVELPKTEEGLGFNIMGGKEQNSPIYISRIIPGGIADRHGGLKRGDQLLSVNGVSVEGEHHEKAVELLKAAQGKVKLVVRYTPKVLEEMESRFEKMRSAKRRQQT [LIN7C]
melting temperature (HeLa Kyoto [1]; cell cycle stage: G1/S): 50.1 °C | melting temperature (HeLa Kyoto [1]; cell cycle stage: mitosis): 51.5 °C | thermal stability score (HeLa Kyoto [2]; [5]): -0.659 | thermal stability score (HeLa Kyoto [2]; cell cycle stage: mitosis): -0.713 | solubility in G1/S (log2) (HeLa Kyoto [3]): 0.382 | solubility change mitosis (log2) (HeLa Kyoto [4]): 0.202

MAALLRRLLQRERPSAASGRPVGRREANLGTDAGVAVRVRFAPSPTGFLHLGGLRTALYNYIFAKKYQGSFILRLEDTDQTRVVPGAAENIEDMLEWAGIPPDESPRRGGPAGPYQQSQRLELYAQATEALLKTGAAYPCFCSPQRLELLKKEALRNHQTPRYDNRCRNMSQEQVAQKLAKDPKPAIRFRLEQVVPAFQDLVYGWNRHEVASVEGDPVIMKSDGFPTYHLACVVDDHHMGISHVLRGSEWLVSTAKHLLLYQALGWQPPHFAHLPLLLNRDGSKLSKRQGDVFLEHFAADGFLPDSLLDIITNCGSGFAENQMGRTLPELITQFNLTQVTCHSALLDLEKLPEFNRLHLQRLVSNESQRRQLVGKLQVLVEEAFGCQLQNRDVLNPVYVERILLLRQGHICRLQDLVSPVYSYLWTRPAVGRAQLDAISEKVDVIAKRVLGLLERSSMSLTQDMLNGELKKLSEGLEGTKYSNVMKLLRMALSGQQQGPPVAEMMLALGPKEVRERIQKVVSS [EARS2]
melting temperature (HeLa Kyoto [1]; cell cycle stage: G1/S): 49.2 °C | melting temperature (HeLa Kyoto [1]; cell cycle stage: mitosis): 49.5 °C | thermal stability score (HeLa Kyoto [2]; [5]): -0.077 | thermal stability score (HeLa Kyoto [2]; cell cycle stage: mitosis): 1.7 | solubility in G1/S (log2) (HeLa Kyoto [3]): 0.363 | solubility change mitosis (log2) (HeLa Kyoto [4]): -0.0812

— the supplement of paper PMC5998384
